# T1: HR2P-FITC (HR2P peptide labeled with FITC) (MERS-CoV, UniProt K9N5Q8 1251-1286)
# T1 peptide: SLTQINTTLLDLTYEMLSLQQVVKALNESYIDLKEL
# Molecular target: T1, HR2P-FITC (HR2P peptide labeled with …)
# Experiment: native gel or EMSA
binder,measurement,value
"ANKFNQALGAMQTGFTTTNEAFHKVQDAVNNNAQALSKLASE [HR1P peptide (residues 998-1039 of the MERS-CoV S protein, HR1 domain of the S2 subunit)]",binding result,binds

# From article PMC7114414 (Virus Research, 2014)
